Laboratory results as given in patent US20220211857A1, “POLYPEPTIDE DERIVATIVE AND PREPARATION METHOD THEREOF” (NINGBO KUNPENG BIOTECH CO., LTD., priority 2019, published 2022).
Where a SMILES comes first, the peptide text is derived from it. The star is where a group is joined. X2 = O=C(O)CCCCCCCCCCCCCCC(=O)NC(CCC(=O)NCCn1cc(CCOC(=O)*)nn1)C(=O)O

Experiments:
[1] = Pharmacokinetics studies of GLP-1 derivatives in rats (single subcutaneous injection, LC-MS/MS, NCA); conditions: rat; for half-lives (in words): experiment of Example 8 repeated in the same way
Procedure: The experiment comprised a reference substance group and a test substance group. GLP-1 and L6-GFA16-GLP-1 were injected subcutaneously with a single administration of 0.5 mg/kg, respectively. Animals in each group were collected blood at 15 min, 30 min, 1 h, 2 h, 3 h, 5 h, 7 h, 12 h, and 24 h after administration. LC-MS/MS analysis method was used to detect contents of different GLP-1 analogues.

[2] = Pharmacokinetics studies of PTH-1 derivatives in rats (single subcutaneous injection, LC-MS/MS, NCA); type: in vivo; conditions: rat, experiment of Example 10 repeated in the same way
Procedure: PTH-1 and L6-GFA16-PTH-1 were injected subcutaneously with a single administration of 8.6 μg/kg, respectively. Animals in each group were collected blood at 0 min, 5 min, 15 min, 30 min, 1 h, 2 h, and 4 h after administration. […] Exposure time of drugs in vivo was prolonged and exposure doses were increased.

| Structure (SMILES) | half-lives (in words) [1] | other results |
| --- | --- | --- |
| CC[C@H](C)[C@H](NC(=O)[C@H](Cc1ccccc1)NC(=O)[C@H](CCC(=O)O)NC(=O)[C@H](CCCCNC(=O)OCCc1cn(CCNC(=O)CCC(NC(=O)CCCCCCCCCCCCCCC(=O)O)C(=O)O)nn1)NC(=O)[C@H](C)NC(=O)[C@H](C)NC(=O)[C@H](CCC(N)=O)NC(=O)CNC(=O)[C@H](CCC(=O)O)NC(=O)[C@H](CC(C)C)NC(=O)[C@H](Cc1ccc(O)cc1)NC(=O)[C@H](CO)NC(=O)[C@H](CO)NC(=O)[C@@H](NC(=O)[C@H](CC(=O)O)NC(=O)[C@H](CO)NC(=O)[C@@H](NC(=O)[C@H](Cc1ccccc1)NC(=O)[C@@H](NC(=O)CNC(=O)[C@H](CCC(=O)O)NC(=O)[C@H](C)NC(=O)[C@@H](N)Cc1c[nH]cn1)[C@@H](C)O)[C@@H](C)O)C(C)C)C(=O)N[C@@H](C)C(=O)N[C@@H](Cc1c[nH]c2ccccc12)C(=O)N[C@@H](CC(C)C)C(=O)N[C@H](C(=O)N[C@@H](CCCCN)C(=O)NCC(=O)N[C@@H](CCCNC(=N)N)C(=O)NCC(=O)O)C(C)C (stereo partly shown) [L0-GFA16-GLP-1] | significantly prolonged | – |
| CC[C@H](C)[C@H](NC(=O)[C@H](CCC(=O)O)NC(=O)[C@H](CO)NC(=O)[C@@H](NC(=O)[C@@H](N)CO)C(C)C)C(=O)N[C@@H](CCC(N)=O)C(=O)N[C@@H](CC(C)C)C(=O)N[C@@H](CCSC)C(=O)N[C@@H](Cc1c[nH]cn1)C(=O)N[C@@H](CC(N)=O)C(=O)N[C@@H](CC(C)C)C(=O)NCC(=O)N[C@@H](CCCNC(=N)N)C(=O)N[C@@H](Cc1c[nH]cn1)C(=O)N[C@@H](CC(C)C)C(=O)N[C@@H](CC(N)=O)C(=O)N[C@@H](CO)C(=O)N[C@@H](CCSC)C(=O)N[C@@H](CCC(=O)O)C(=O)N[C@@H](CCCNC(=N)N)C(=O)N[C@H](C(=O)N[C@@H](CCC(=O)O)C(=O)N[C@@H](Cc1c[nH]c2ccccc12)C(=O)N[C@@H](CC(C)C)C(=O)N[C@@H](CCCNC(=N)N)C(=O)N[C@@H](CCCCNC(=O)OCCc1cn(CCNC(=O)CCC(NC(=O)CCCCCCCCCCCCCCC(=O)O)C(=O)O)nn1)C(=O)N[C@@H](CCCNC(=N)N)C(=O)N[C@@H](CC(C)C)C(=O)N[C@@H](CCC(N)=O)C(=O)N[C@@H](CC(=O)O)C(=O)N[C@H](C(=O)N[C@@H](Cc1c[nH]cn1)C(=O)N[C@@H](CC(N)=O)C(=O)N[C@@H](Cc1ccccc1)C(=O)O)C(C)C)C(C)C (stereo partly shown) [L0-GFA16-PTH] (H-SVSEIQLMHNLGRHLNSMERVEWLRK(X2)RLQDVHNF-OH) | – | half-lives (in words) [2]: significantly prolonged |
| CC[C@H](C)[C@H](NC(=O)[C@H](Cc1ccccc1)NC(=O)[C@H](CCC(=O)O)NC(=O)[C@H](CCCCNC(=O)OCCc1cn(CCOCCOCCNC(=O)CCC(NC(=O)CCCCCCCCCCCCCCC(=O)O)C(=O)O)nn1)NC(=O)[C@H](C)NC(=O)[C@H](C)NC(=O)[C@H](CCC(N)=O)NC(=O)CNC(=O)[C@H](CCC(=O)O)NC(=O)[C@H](CC(C)C)NC(=O)[C@H](Cc1ccc(O)cc1)NC(=O)[C@H](CO)NC(=O)[C@H](CO)NC(=O)[C@@H](NC(=O)[C@H](CC(=O)O)NC(=O)[C@H](CO)NC(=O)[C@@H](NC(=O)[C@H](Cc1ccccc1)NC(=O)[C@@H](NC(=O)CNC(=O)[C@H](CCC(=O)O)NC(=O)[C@H](C)NC(=O)[C@@H](N)Cc1c[nH]cn1)[C@@H](C)O)[C@@H](C)O)C(C)C)C(=O)N[C@@H](C)C(=O)N[C@@H](Cc1c[nH]c2ccccc12)C(=O)N[C@@H](CC(C)C)C(=O)N[C@H](C(=O)N[C@@H](CCCCN)C(=O)NCC(=O)N[C@@H](CCCNC(=N)N)C(=O)NCC(=O)O)C(C)C (stereo partly shown) [L2-GFA16-GLP-1] | significantly prolonged | – |
| CC[C@H](C)[C@H](NC(=O)[C@H](Cc1ccccc1)NC(=O)[C@H](CCC(=O)O)NC(=O)[C@H](CCCCNC(=O)OCCc1cn(CCOCCOCCOCCNC(=O)CCC(NC(=O)CCCCCCCCCCCCCCC(=O)O)C(=O)O)nn1)NC(=O)[C@H](C)NC(=O)[C@H](C)NC(=O)[C@H](CCC(N)=O)NC(=O)CNC(=O)[C@H](CCC(=O)O)NC(=O)[C@H](CC(C)C)NC(=O)[C@H](Cc1ccc(O)cc1)NC(=O)[C@H](CO)NC(=O)[C@H](CO)NC(=O)[C@@H](NC(=O)[C@H](CC(=O)O)NC(=O)[C@H](CO)NC(=O)[C@@H](NC(=O)[C@H](Cc1ccccc1)NC(=O)[C@@H](NC(=O)CNC(=O)[C@H](CCC(=O)O)NC(=O)[C@H](C)NC(=O)[C@@H](N)Cc1c[nH]cn1)[C@@H](C)O)[C@@H](C)O)C(C)C)C(=O)N[C@@H](C)C(=O)N[C@@H](Cc1c[nH]c2ccccc12)C(=O)N[C@@H](CC(C)C)C(=O)N[C@H](C(=O)N[C@@H](CCCCN)C(=O)NCC(=O)N[C@@H](CCCNC(=N)N)C(=O)NCC(=O)O)C(C)C (stereo partly shown) [L3-GFA16-GLP-1] | significantly prolonged | – |
| CC[C@H](C)[C@H](NC(=O)[C@H](Cc1ccccc1)NC(=O)[C@H](CCC(=O)O)NC(=O)[C@H](CCCCNC(=O)OCCc1cn(CCOCCOCCOCCOCCNC(=O)CCC(NC(=O)CCCCCCCCCCCCCCC(=O)O)C(=O)O)nn1)NC(=O)[C@H](C)NC(=O)[C@H](C)NC(=O)[C@H](CCC(N)=O)NC(=O)CNC(=O)[C@H](CCC(=O)O)NC(=O)[C@H](CC(C)C)NC(=O)[C@H](Cc1ccc(O)cc1)NC(=O)[C@H](CO)NC(=O)[C@H](CO)NC(=O)[C@@H](NC(=O)[C@H](CC(=O)O)NC(=O)[C@H](CO)NC(=O)[C@@H](NC(=O)[C@H](Cc1ccccc1)NC(=O)[C@@H](NC(=O)CNC(=O)[C@H](CCC(=O)O)NC(=O)[C@H](C)NC(=O)[C@@H](N)Cc1c[nH]cn1)[C@@H](C)O)[C@@H](C)O)C(C)C)C(=O)N[C@@H](C)C(=O)N[C@@H](Cc1c[nH]c2ccccc12)C(=O)N[C@@H](CC(C)C)C(=O)N[C@H](C(=O)N[C@@H](CCCCN)C(=O)NCC(=O)N[C@@H](CCCNC(=N)N)C(=O)NCC(=O)O)C(C)C (stereo partly shown) [L4-GFA16-GLP-1] | significantly prolonged | – |
| CC[C@H](C)[C@H](NC(=O)[C@H](Cc1ccccc1)NC(=O)[C@H](CCC(=O)O)NC(=O)[C@H](CCCCNC(=O)OCCc1cn(CCNC(=O)COCCOCCNC(=O)COCCOCCNC(=O)CCC(NC(=O)CCCCCCCCCCCCCCC(=O)O)C(=O)O)nn1)NC(=O)[C@H](C)NC(=O)[C@H](C)NC(=O)[C@H](CCC(N)=O)NC(=O)CNC(=O)[C@H](CCC(=O)O)NC(=O)[C@H](CC(C)C)NC(=O)[C@H](Cc1ccc(O)cc1)NC(=O)[C@H](CO)NC(=O)[C@H](CO)NC(=O)[C@@H](NC(=O)[C@H](CC(=O)O)NC(=O)[C@H](CO)NC(=O)[C@@H](NC(=O)[C@H](Cc1ccccc1)NC(=O)[C@@H](NC(=O)CNC(=O)[C@H](CCC(=O)O)NC(=O)[C@H](C)NC(=O)[C@@H](N)Cc1c[nH]cn1)[C@@H](C)O)[C@@H](C)O)C(C)C)C(=O)N[C@@H](C)C(=O)N[C@@H](Cc1c[nH]c2ccccc12)C(=O)N[C@@H](CC(C)C)C(=O)N[C@H](C(=O)N[C@@H](CCCCN)C(=O)NCC(=O)N[C@@H](CCCNC(=N)N)C(=O)NCC(=O)O)C(C)C (stereo partly shown) [L6-GFA16-GLP-1] | – | Exposure time in vivo ([1]; s.c. 0.5 mg/kg, versus GLP-1): prolonged; exposure doses ([1]; s.c. 0.5 mg/kg, versus GLP-1): increased significantly |
